Experimental data: US20260049138A1 (Chugai, published 2026)
Numbering of substitutions follows the chain as printed. Names may count otherwise.

B1: GLS3000 Q93R one-arm antibody (antibody, human IgG1, kappa, L234A L235A, N297A, name in Kabat numbering)
heavy: QVQLVESGGGVVQPGRSLRLSCAASGFTFSNAWMHWVRQAPGKGLEWVAQIKAKSNNYATYYAESVKGRFTISRDDSKNSLYLQMNSLKTEDTAVYYCRYVHYGAYYGVDAWGQGTTVTVSSASTKGPSVFPLAPSSKSTSGGTAALGCLVKDYFPEPVTVSWNSGALTSGVHTFPAVLQSSGLYSLSSVVTVPSSSLGTQTYICNVNHKPSNTKVDKKVEPKSCDKTHTCPPCPAPEAAGGPSVFLFPPKPKDTLMISRTPEVTCVVVDVSHEDPEVKFNWYVDGVEVHNAKTKPREEQYASTYRVVSVLTVLHQDWLNGKEYKCKVSNKALPAPIEKTISKAKGQPREPQVYTLPPSRCELTKNQVSLSCAVKGFYPSDIAVEWESNGQPENNYKTTPPVLDSDGSFFLVSKLTVDKSRWQQGNVFSCSVMHEALHNHYTQKSLSLSPDYKDDDDK
chain: EPKSSDKTHTCPPCPAPELLGGPSVFLFPPKPKDTLMISRTPEVTCVVVDVSHEDPEVKFNWYVDGVEVHNAKTKPREEQYNSTYRVVSVLTVLHQDWLNGKEYKCKVSNKALPAPIEKTISKAKGQPREPQVCTLPPSRDELTKNQVSLWCLVKGFYPSDIAVEWESNGQPENNYKTTPPVLDSDGSFFLYSKLTVDKSRWQQGNVFSCSVMHEALHNRYTQKSLSLSP
light: DIVMTQSPLSLPVTPGEPASISCRSSQSLVHSNRNTYLHWYQQKPGQAPRLLIYKVSNRFSGVPDRFSGSGSGTDFTLKISRVEAEDVGVYYCGQGTRVPYTFGQGTKLEIKRTVAAPSVFIFPPSDEQLKSGTASVVCLLNNFYPREAKVQWKVDNALQSGNSQESVTEQDSKDSTYSLSSTLTLSKADYEKHKVYACEVTHQGLSSPVTKSFNRGEC
B2: GLS3000 R24T one-arm antibody (antibody, human IgG1, kappa, L234A L235A, N297A, name in Kabat numbering)
heavy: B1 heavy
chain: B1 chain
light: B1 light with R24T, R98Q
B3: GLS3000 R24A one-arm antibody (antibody, human IgG1, kappa, L234A L235A, N297A, name in Kabat numbering)
heavy: B1 heavy
chain: B1 chain
light: B1 light with R24A, R98Q
B4: GLS3000 R29S one-arm antibody (antibody, human IgG1, kappa, L234A L235A, N297A, name in Kabat numbering)
heavy: B1 heavy
chain: B1 chain
light: B1 light with R34S, R98Q
B5: GLS3000 R29P one-arm antibody (antibody, human IgG1, kappa, L234A L235A, N297A, name in Kabat numbering)
heavy: B1 heavy
chain: B1 chain
light: B1 light with R34P, R98Q
B6: GLS3000 R24Q one-arm antibody (antibody, human IgG1, kappa, L234A L235A, N297A, name in Kabat numbering)
heavy: B1 heavy
chain: B1 chain
light: B1 light with R24Q, R98Q
B7: GLS3000 R29L one-arm antibody (antibody, human IgG1, kappa, L234A L235A, N297A, name in Kabat numbering)
heavy: B1 heavy
chain: B1 chain
light: B1 light with R34L, R98Q
B8: GLS3000 R54D one-arm antibody (antibody, human IgG1, kappa, L234A L235A, N297A, name in Kabat numbering)
heavy: B1 heavy
chain: B1 chain
light: B1 light with R59D, R98Q
B9: GLS3000 R24P one-arm antibody (antibody, human IgG1, kappa, L234A L235A, N297A, name in Kabat numbering)
heavy: B1 heavy
chain: B1 chain
light: B1 light with R24P, R98Q
B10: GLS3000 R54Q one-arm antibody (antibody, human IgG1, kappa, L234A L235A, N297A, name in Kabat numbering)
heavy: B1 heavy
chain: B1 chain
light: B1 light with R59Q, R98Q
B11: GLS3000 R54E one-arm antibody (antibody, human IgG1, kappa, L234A L235A, N297A, name in Kabat numbering)
heavy: B1 heavy
chain: B1 chain
light: B1 light with R59E, R98Q
B12: GLS3000 R29I one-arm antibody (antibody, human IgG1, kappa, L234A L235A, N297A, name in Kabat numbering)
heavy: B1 heavy
chain: B1 chain
light: B1 light with R34I, R98Q
B13: GLS3000 R29A one-arm antibody (antibody, human IgG1, kappa, L234A L235A, N297A, name in Kabat numbering)
heavy: B1 heavy
chain: B1 chain
light: B1 light with R34A, R98Q
B14: GLS3000 R29Y one-arm antibody (antibody, human IgG1, kappa, L234A L235A, N297A, name in Kabat numbering)
heavy: B1 heavy
chain: B1 chain
light: B1 light with R34Y, R98Q
B15: GLS3000 R24D one-arm antibody (antibody, human IgG1, kappa, L234A L235A, N297A, name in Kabat numbering)
heavy: B1 heavy
chain: B1 chain
light: B1 light with R24D, R98Q
B16: GLS3000 R54G one-arm antibody (antibody, human IgG1, kappa, L234A L235A, N297A, name in Kabat numbering)
heavy: B1 heavy
chain: B1 chain
light: B1 light with R59G, R98Q
B17: GLS3000 Q93Y one-arm antibody (antibody, human IgG1, kappa, L234A L235A, N297A, name in Kabat numbering)
heavy: B1 heavy
chain: B1 chain
light: B1 light with R98Y
B18: GLS3000 R29T one-arm antibody (antibody, human IgG1, kappa, L234A L235A, N297A, name in Kabat numbering)
heavy: B1 heavy
chain: B1 chain
light: B1 light with R34T, R98Q
B19: GLS3000 R54W one-arm antibody (antibody, human IgG1, kappa, L234A L235A, N297A, name in Kabat numbering)
heavy: B1 heavy
chain: B1 chain
light: B1 light with R59W, R98Q
B20: GLS3000 R54T one-arm antibody (antibody, human IgG1, kappa, L234A L235A, N297A, name in Kabat numbering)
heavy: B1 heavy
chain: B1 chain
light: B1 light with R59T, R98Q
B21: GLS3000 R29G one-arm antibody (antibody, human IgG1, kappa, L234A L235A, N297A, name in Kabat numbering)
heavy: B1 heavy
chain: B1 chain
light: B1 light with R34G, R98Q
B22: GLS3000 R24S one-arm antibody (antibody, human IgG1, kappa, L234A L235A, N297A, name in Kabat numbering)
heavy: B1 heavy
chain: B1 chain
light: B1 light with R24S, R98Q
B23: GLS3000 R54S one-arm antibody (antibody, human IgG1, kappa, L234A L235A, N297A, name in Kabat numbering)
heavy: B1 heavy
chain: B1 chain
light: B1 light with R59S, R98Q
B24: GLS3000 R77S one-arm antibody (antibody, human IgG1, kappa, L234A L235A, N297A, name in Kabat numbering)
heavy: B1 heavy
chain: B1 chain
light: B1 light with R82S, R98Q
B25: GLS3000 R54P one-arm antibody (antibody, human IgG1, kappa, L234A L235A, N297A, name in Kabat numbering)
heavy: B1 heavy
chain: B1 chain
light: B1 light with R59P, R98Q
B26: GLS3000 S25A one-arm antibody (antibody, human IgG1, kappa, L234A L235A, N297A, name in Kabat numbering)
heavy: B1 heavy
chain: B1 chain
light: B1 light with S25A, R98Q
B27: GLS3000 Q93S one-arm antibody (antibody, human IgG1, kappa, L234A L235A, N297A, name in Kabat numbering)
heavy: B1 heavy
chain: B1 chain
light: B1 light with R98S
B28: GLS3000 R24Y one-arm antibody (antibody, human IgG1, kappa, L234A L235A, N297A, name in Kabat numbering)
heavy: B1 heavy
chain: B1 chain
light: B1 light with R24Y, R98Q
B29: GLS3000 S25D one-arm antibody (antibody, human IgG1, kappa, L234A L235A, N297A, name in Kabat numbering)
heavy: B1 heavy
chain: B1 chain
light: B1 light with S25D, R98Q
B30: GLS3000 R24E one-arm antibody (antibody, human IgG1, kappa, L234A L235A, N297A, name in Kabat numbering)
heavy: B1 heavy
chain: B1 chain
light: B1 light with R24E, R98Q
B31: GLS3000 R24G one-arm antibody (antibody, human IgG1, kappa, L234A L235A, N297A, name in Kabat numbering)
heavy: B1 heavy
chain: B1 chain
light: B1 light with R24G, R98Q
B32: GLS3000 R29V one-arm antibody (antibody, human IgG1, kappa, L234A L235A, N297A, name in Kabat numbering)
heavy: B1 heavy
chain: B1 chain
light: B1 light with R34V, R98Q
B33: GLS3000 R54A one-arm antibody (antibody, human IgG1, kappa, L234A L235A, N297A, name in Kabat numbering)
heavy: B1 heavy
chain: B1 chain
light: B1 light with R59A, R98Q
B34: GLS3000 R29D one-arm antibody (antibody, human IgG1, kappa, L234A L235A, N297A, name in Kabat numbering)
heavy: B1 heavy
chain: B1 chain
light: B1 light with R34D, R98Q

The binders below were run against T1, CD3ε homodimer protein (human, UniProt P07766 23-126, limits assumed) (assay: SPR Biacore T200, CD3ε homodimer on chip;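 further: Light-chain single-residue variant antibodies injected over amine-coupled CD3ε homodimer on a CM4 chip at 25 °C, bound amount divided by that of the GLS3000-containing antibody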).
T1 construct: also called CD3 (CD3ε)
T1 sequence (P07766 23-126 limits assumed): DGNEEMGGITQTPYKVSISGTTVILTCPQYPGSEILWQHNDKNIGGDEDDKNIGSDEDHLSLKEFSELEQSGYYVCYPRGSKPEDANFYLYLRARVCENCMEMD

ratio of amount bound vs unaltered GLS3000 | Binder
1.13 | B1
0.88 | B2
0.86 | B3
0.68 | B4
0.31 | B5
0.9 | B6
0.56 | B7
0.36 | B8
0.7 | B9
0.68 | B10
0.58 | B11
0.37 | B12
0.63 | B13
0.69 | B14
0.75 | B15
0.67 | B16
0.87 | B17

ratio of amount bound vs unaltered GLS3000 | Binder
0.63 | B18
0.78 | B19
0.65 | B20
0.67 | B21
0.89 | B22
0.79 | B23
0.92 | B24
0.84 | B25
0.92 | B26
0.96 | B27
0.87 | B28
0.18 | B29
0.83 | B30
0.89 | B31
0.34 | B32
0.69 | B33
0.41 | B34
